Data reported in the supplement of paper PMC7877785.
± gives the uncertainty stated by the source.

Assay: self-splicing fitness, log relative to wild type (ln ratio); higher = more splicing; Tetrahymena group I intron in knt gene, E. coli kanamycin selection, DiMSum; sequences stand for … in CUCUCU…GGAGGGAAAAGUUAUCAGGCAUGCACCUGGUAGCUAGUCUUUAAACCAAUAGAUUGCAUCGGUUUAAAAGGCAAGACCGUCAAAUUGCGGGAAAGGGGUCAACAGCCGUUCAGUACCAAGUCUCAGGGGAAACUUUGAGAUGGCCUUGCAAAGGGUAUGGUAAUAAGCUGACGGACAUGGUCCUAACCACGCAGCCAAGUCCUAAGUCAACAGAUCUUCUGUUGAUAUGGAUGCAGUUCACAGACUAAAUGUCGGUCGGGGAAGAUGUAUUCUUCUCAUAAGAUAUAGUCGGACCUCUCCUUAAUGGGAGCUAGCGGAUGAAGUGAUGCAACACUGGAGCCGCUGGGAACUAAUUUGUAUGCGAAAGUAUAUUGAUUAGUUUUGGAGUACUCGUGGUCG
Summary of the method: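 DiMSum derived fitness as the error-weighted combination of fold changes across replicates, kanamycin versus no kanamycin, normalised to wild type. E. coli BL21(DE3) held the library, which randomised all eight P1ex-region intron nucleotides within the knt kanamycin-resistance gene on pET-22b(+). Six replicate transformations grew overnight at 37°C or 30°C on LB agar with or without 25 μg/mL kanamycin, also containing 100 μg/mL carbenicillin, 50 μM IPTG and 0.2% rhamnose, and pooled colonies were amplicon-sequenced on an Illumina HiSeq 2500.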

CUCGAGCAAUAUUACGGCUA
self-splicing fitness (ln) (37 °C): -2.32 ± 0.39

CUCGAGCAAUAUUACGGGUC
self-splicing fitness (ln) (30 °C): -3.33 ± 0.28
self-splicing fitness (ln) (37 °C): -1.77 ± 0.31

CUCGAGCAAUAUUACGGUAC
self-splicing fitness (ln) (30 °C): -2.82 ± 0.22
self-splicing fitness (ln) (37 °C): -2.84 ± 0.4

CUCGAGCAAUAUUACGGUCA
self-splicing fitness (ln) (30 °C): -2.89 ± 0.28
self-splicing fitness (ln) (37 °C): -0.817 ± 0.23

CUCGAGCAAUAUUACGUAAC
self-splicing fitness (ln) (30 °C): -1.53 ± 0.28

CUCGAGCAAUAUUACGUAAU
self-splicing fitness (ln) (37 °C): -1.42 ± 0.29

CUCGAGCAAUAUUACGUCAA
self-splicing fitness (ln) (30 °C): -3.49 ± 0.3
self-splicing fitness (ln) (37 °C): -1.81 ± 0.26

CUCGAGCAAUAUUACGUGCC
self-splicing fitness (ln) (30 °C): -3.35 ± 0.35

CUCGAGCAAUAUUACGUGGA
self-splicing fitness (ln) (30 °C): -2.89 ± 0.27
self-splicing fitness (ln) (37 °C): -1.88 ± 0.16

CUCGAGCAAUAUUACGUUCA
self-splicing fitness (ln) (30 °C): -3.47 ± 0.35

CUCGAGCAAUAUUACGUUCG
self-splicing fitness (ln) (37 °C): -3.15 ± 0.47

CUCUAGCAAUAUUACGAAAA
self-splicing fitness (ln) (37 °C): -1.12 ± 0.2

CUCUAGCAAUAUUACGAACG
self-splicing fitness (ln) (30 °C): -0.887 ± 0.097
self-splicing fitness (ln) (37 °C): -0.112 ± 0.11

CUCUAGCAAUAUUACGAAGA
self-splicing fitness (ln) (37 °C): -2.75 ± 0.26

CUCUAGCAAUAUUACGAAUG
self-splicing fitness (ln) (30 °C): -1.55 ± 0.091
self-splicing fitness (ln) (37 °C): -1.1 ± 0.11

CUCUAGCAAUAUUACGACGG
self-splicing fitness (ln) (30 °C): -2.32 ± 0.18
self-splicing fitness (ln) (37 °C): -1.98 ± 0.29

CUCUAGCAAUAUUACGAGAC
self-splicing fitness (ln) (37 °C): -1.17 ± 0.26

CUCUAGCAAUAUUACGAGCG
self-splicing fitness (ln) (30 °C): -2.79 ± 0.14
self-splicing fitness (ln) (37 °C): -2.73 ± 0.16

CUCUAGCAAUAUUACGAGUC
self-splicing fitness (ln) (37 °C): -2.8 ± 0.3

CUCUAGCAAUAUUACGAUAA
self-splicing fitness (ln) (30 °C): -3.29 ± 0.27
self-splicing fitness (ln) (37 °C): -2 ± 0.24

CUCUAGCAAUAUUACGCACA
self-splicing fitness (ln) (30 °C): -3.24 ± 0.4
self-splicing fitness (ln) (37 °C): -3.82 ± 0.46

CUCUAGCAAUAUUACGCUGA
self-splicing fitness (ln) (30 °C): -1.6 ± 0.21
self-splicing fitness (ln) (37 °C): -2.31 ± 0.27

CUCUAGCAAUAUUACGCUGC
self-splicing fitness (ln) (30 °C): -3.58 ± 0.44

CUCUAGCAAUAUUACGGAAG
self-splicing fitness (ln) (30 °C): -2.95 ± 0.13
self-splicing fitness (ln) (37 °C): -1.34 ± 0.12

CUCUAGCAAUAUUACGGCGU
self-splicing fitness (ln) (30 °C): -3.56 ± 0.27
self-splicing fitness (ln) (37 °C): -2.83 ± 0.24

CUCUAGCAAUAUUACGGUAU
self-splicing fitness (ln) (30 °C): -2.7 ± 0.16
self-splicing fitness (ln) (37 °C): -2.77 ± 0.23

CUCUAGCAAUAUUACGGUCU
self-splicing fitness (ln) (30 °C): -3.26 ± 0.2
self-splicing fitness (ln) (37 °C): -3.06 ± 0.23

CUCUAGCAAUAUUACGGUUU
self-splicing fitness (ln) (30 °C): -3.04 ± 0.41
self-splicing fitness (ln) (37 °C): -1.82 ± 0.29

CUCUAGCAAUAUUACGUCGC
self-splicing fitness (ln) (37 °C): -3.28 ± 0.47

CUCUAGCAAUAUUACGUGCC
self-splicing fitness (ln) (30 °C): -3.23 ± 0.28
self-splicing fitness (ln) (37 °C): -3.62 ± 0.39

CUCUAGCAAUAUUACGUGCU
self-splicing fitness (ln) (30 °C): -2.48 ± 0.3
self-splicing fitness (ln) (37 °C): -2.38 ± 0.27

CUCUAGCAAUAUUACGUGGU
self-splicing fitness (ln) (30 °C): -5.48 ± 0.41
self-splicing fitness (ln) (37 °C): -3.5 ± 0.22

CUCUAGCAAUAUUACGUUCA
self-splicing fitness (ln) (30 °C): -3.66 ± 0.34
self-splicing fitness (ln) (37 °C): -3.02 ± 0.27

CUGAAGCAAUAUUACGAAAC
self-splicing fitness (ln) (30 °C): -3.39 ± 0.25

CUGAAGCAAUAUUACGACUC
self-splicing fitness (ln) (30 °C): -1.82 ± 0.22

CUGAAGCAAUAUUACGACUG
self-splicing fitness (ln) (30 °C): 0.187 ± 0.08
self-splicing fitness (ln) (37 °C): 0.678 ± 0.11

CUGAAGCAAUAUUACGAGAG
self-splicing fitness (ln) (30 °C): -1.32 ± 0.088
self-splicing fitness (ln) (37 °C): -1.18 ± 0.11

CUGAAGCAAUAUUACGAGGG
self-splicing fitness (ln) (30 °C): -2.03 ± 0.11
self-splicing fitness (ln) (37 °C): -1.25 ± 0.14

CUGAAGCAAUAUUACGAUGA
self-splicing fitness (ln) (30 °C): -3.52 ± 0.21
self-splicing fitness (ln) (37 °C): -1.92 ± 0.16

CUGAAGCAAUAUUACGAUGU
self-splicing fitness (ln) (30 °C): -3.12 ± 0.13
self-splicing fitness (ln) (37 °C): -1.21 ± 0.12

CUGAAGCAAUAUUACGCAGG
self-splicing fitness (ln) (30 °C): -1.8 ± 0.082
self-splicing fitness (ln) (37 °C): -1.77 ± 0.12

CUGAAGCAAUAUUACGCGAC
self-splicing fitness (ln) (30 °C): -1.46 ± 0.086
self-splicing fitness (ln) (37 °C): -1.14 ± 0.1

CUGAAGCAAUAUUACGCGGC
self-splicing fitness (ln) (30 °C): -0.11 ± 0.081
self-splicing fitness (ln) (37 °C): 0.053 ± 0.11

CUGAAGCAAUAUUACGCUAC
self-splicing fitness (ln) (30 °C): -3.7 ± 0.47

CUGAAGCAAUAUUACGGAUG
self-splicing fitness (ln) (30 °C): -2.18 ± 0.1
self-splicing fitness (ln) (37 °C): -1.14 ± 0.1

CUGAAGCAAUAUUACGGCCC
self-splicing fitness (ln) (30 °C): -1.58 ± 0.48

CUGAAGCAAUAUUACGGGAU
self-splicing fitness (ln) (30 °C): -1.65 ± 0.076
self-splicing fitness (ln) (37 °C): -1.07 ± 0.11

CUGAAGCAAUAUUACGGGGC
self-splicing fitness (ln) (30 °C): -3.24 ± 0.21
self-splicing fitness (ln) (37 °C): -2.56 ± 0.27

CUGAAGCAAUAUUACGUAGU
self-splicing fitness (ln) (30 °C): -4.3 ± 0.23
self-splicing fitness (ln) (37 °C): -3.22 ± 0.26

CUGAAGCAAUAUUACGUCGG
self-splicing fitness (ln) (30 °C): -3.11 ± 0.18
self-splicing fitness (ln) (37 °C): -1.14 ± 0.16

CUGAAGCAAUAUUACGUCUU
self-splicing fitness (ln) (30 °C): -3.7 ± 0.24
self-splicing fitness (ln) (37 °C): -2.64 ± 0.25

CUGAAGCAAUAUUACGUUCU
self-splicing fitness (ln) (30 °C): -3.39 ± 0.22
self-splicing fitness (ln) (37 °C): -3.45 ± 0.37

CUGAAGCAAUAUUACGUUGG
self-splicing fitness (ln) (30 °C): -2.84 ± 0.13
self-splicing fitness (ln) (37 °C): -1.58 ± 0.13

CUGCAGCAAUAUUACGAGAA
self-splicing fitness (ln) (30 °C): -2.56 ± 0.35
self-splicing fitness (ln) (37 °C): -2.64 ± 0.33

CUGCAGCAAUAUUACGAGAU
self-splicing fitness (ln) (30 °C): -3.69 ± 0.34

CUGCAGCAAUAUUACGAUGA
self-splicing fitness (ln) (30 °C): -3.75 ± 0.22
self-splicing fitness (ln) (37 °C): -2.45 ± 0.23

CUGCAGCAAUAUUACGAUGU
self-splicing fitness (ln) (30 °C): -3.96 ± 0.23
self-splicing fitness (ln) (37 °C): -2.71 ± 0.3

CUGCAGCAAUAUUACGAUUG
self-splicing fitness (ln) (30 °C): -0.725 ± 0.06
self-splicing fitness (ln) (37 °C): -0.488 ± 0.074

CUGCAGCAAUAUUACGCAUA
self-splicing fitness (ln) (30 °C): -2.84 ± 0.2
self-splicing fitness (ln) (37 °C): -2.73 ± 0.17

CUGCAGCAAUAUUACGCCAG
self-splicing fitness (ln) (30 °C): -2.56 ± 0.42
self-splicing fitness (ln) (37 °C): -1.07 ± 0.21

CUGCAGCAAUAUUACGCCAU
self-splicing fitness (ln) (30 °C): -3.9 ± 0.2
self-splicing fitness (ln) (37 °C): -3.42 ± 0.17

CUGCAGCAAUAUUACGCGCC
self-splicing fitness (ln) (30 °C): -3.33 ± 0.33
self-splicing fitness (ln) (37 °C): -2.17 ± 0.24

CUGCAGCAAUAUUACGCUCU
self-splicing fitness (ln) (30 °C): -3.52 ± 0.41
self-splicing fitness (ln) (37 °C): -2.27 ± 0.25

CUGCAGCAAUAUUACGCUUA
self-splicing fitness (ln) (30 °C): -3.04 ± 0.29
self-splicing fitness (ln) (37 °C): -3.98 ± 0.46

CUGCAGCAAUAUUACGGAAU
self-splicing fitness (ln) (30 °C): -5.11 ± 0.45
self-splicing fitness (ln) (37 °C): -2.74 ± 0.32

CUGCAGCAAUAUUACGGAGA
self-splicing fitness (ln) (30 °C): -3.35 ± 0.22
self-splicing fitness (ln) (37 °C): -2.83 ± 0.34

CUGCAGCAAUAUUACGGAGC
self-splicing fitness (ln) (30 °C): -3.93 ± 0.47
self-splicing fitness (ln) (37 °C): -2.61 ± 0.31

CUGCAGCAAUAUUACGGCCC
self-splicing fitness (ln) (30 °C): -2.85 ± 0.36

CUGCAGCAAUAUUACGGCGA
self-splicing fitness (ln) (30 °C): -0.954 ± 0.14
self-splicing fitness (ln) (37 °C): -0.847 ± 0.13

CUGCAGCAAUAUUACGGCGG
self-splicing fitness (ln) (30 °C): -3.57 ± 0.25
self-splicing fitness (ln) (37 °C): -2.23 ± 0.28

CUGCAGCAAUAUUACGGGAC
self-splicing fitness (ln) (30 °C): -2.53 ± 0.22
self-splicing fitness (ln) (37 °C): -0.85 ± 0.17

CUGCAGCAAUAUUACGGGGG
self-splicing fitness (ln) (30 °C): -2.95 ± 0.18
self-splicing fitness (ln) (37 °C): -2.6 ± 0.21

CUGCAGCAAUAUUACGGGUC
self-splicing fitness (ln) (30 °C): -3.51 ± 0.23
self-splicing fitness (ln) (37 °C): -3.07 ± 0.31

CUGCAGCAAUAUUACGGUGC
self-splicing fitness (ln) (30 °C): -3.97 ± 0.24
self-splicing fitness (ln) (37 °C): -1.96 ± 0.23

CUGCAGCAAUAUUACGGUUC
self-splicing fitness (ln) (30 °C): -3.41 ± 0.1
self-splicing fitness (ln) (37 °C): -2.48 ± 0.13

CUGCAGCAAUAUUACGUCCU
self-splicing fitness (ln) (30 °C): -3.82 ± 0.37
self-splicing fitness (ln) (37 °C): -1.31 ± 0.31

CUGCAGCAAUAUUACGUCGG
self-splicing fitness (ln) (30 °C): -3.32 ± 0.18
self-splicing fitness (ln) (37 °C): -1.98 ± 0.2

CUGCAGCAAUAUUACGUGAU
self-splicing fitness (ln) (30 °C): -1.19 ± 0.072
self-splicing fitness (ln) (37 °C): -0.758 ± 0.12

CUGCAGCAAUAUUACGUUAC
self-splicing fitness (ln) (30 °C): -4.46 ± 0.28
self-splicing fitness (ln) (37 °C): -3.08 ± 0.24

CUGCAGCAAUAUUACGUUGU
self-splicing fitness (ln) (30 °C): -4.62 ± 0.25
self-splicing fitness (ln) (37 °C): -2.54 ± 0.2

CUGCAGCAAUAUUACGUUUU
self-splicing fitness (ln) (30 °C): -3.97 ± 0.19
self-splicing fitness (ln) (37 °C): -3.27 ± 0.21

CUGGAGCAAUAUUACGAAAG
self-splicing fitness (ln) (30 °C): -3.51 ± 0.4
